For experiment [1], the target named is IL3Rα (1-100) chimeric receptor protein: IL3Rα residues 1-100 fused to GMRα residues 115-325, His-tagged (human) (UniProt P15509). Kind of experiment: ELISA on plate-coated His-tagged protein, A450.
In experiment [2] the target is extracellular domain of CD123/IL-3Rα (residues 1-306), histidine tagged (human) (UniProt P26951). Kind of experiment: ELISA on plate-coated His-tagged protein, A450.

pEC50: −log10 of the molar value.

Sequence of IL3Rα (1-100) chimeric receptor protein: IL3Rα residues 1-100 fused to GMRα residues 115-325, His-tagged (human) (P15509 other isoform, or with tags, fused parts or gaps mutant limits assumed, form in doubt): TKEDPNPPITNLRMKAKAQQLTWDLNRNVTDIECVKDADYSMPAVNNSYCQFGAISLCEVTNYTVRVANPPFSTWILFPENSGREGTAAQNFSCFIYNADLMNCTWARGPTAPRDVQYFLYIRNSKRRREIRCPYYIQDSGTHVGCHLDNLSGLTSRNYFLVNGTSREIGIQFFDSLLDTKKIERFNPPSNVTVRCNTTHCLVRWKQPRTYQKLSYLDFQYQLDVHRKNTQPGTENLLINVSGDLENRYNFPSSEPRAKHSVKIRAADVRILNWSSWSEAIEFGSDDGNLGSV
Sequence of extracellular domain of CD123/IL-3Rα (residues 1-306), histidine tagged (human) (P26951 19-306): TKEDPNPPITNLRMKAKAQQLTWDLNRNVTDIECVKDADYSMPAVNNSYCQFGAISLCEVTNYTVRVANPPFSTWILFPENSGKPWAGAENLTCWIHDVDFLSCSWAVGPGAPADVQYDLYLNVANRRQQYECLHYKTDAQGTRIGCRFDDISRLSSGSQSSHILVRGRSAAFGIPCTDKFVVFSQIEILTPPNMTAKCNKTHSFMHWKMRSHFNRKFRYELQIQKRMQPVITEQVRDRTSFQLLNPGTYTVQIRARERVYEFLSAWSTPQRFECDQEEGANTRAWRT

Take ch7G3 (antibody): the pEC50 is 10.51 in experiment [1] and 10.57 in experiment [2].
